Series [1] concerns PNPase S437-9A (active site mutant). Put plainly: BLI. As to conditions: EMSA: 20 mM Tris pH 7.5, 100 mM NaCl, 1 mM MgCl2, 1 mM DTT, 30 C, 0.2 uM RNA; BLI: same buffer + 1 mg/mL acetylated BSA; ITC: 20 mM Tris-HCl pH 7.5, 1 mM …. On the technique in general: In EMSA bound probe runs differently from free probe, usually more slowly.
The subject of series [2] is PNPase. Put plainly: BLI. Particulars: EMSA: 20 mM Tris pH 7.5, 100 mM NaCl, 1 mM MgCl2, 1 mM DTT, 30 C, 0.2 uM RNA; BLI: same buffer + 1 mg/mL acetylated BSA; ITC: 20 mM Tris-HCl pH 7.5, 1 mM ….
Series [3] concerns the target T1, PNPase (UniProt P05055).
T1 sequence: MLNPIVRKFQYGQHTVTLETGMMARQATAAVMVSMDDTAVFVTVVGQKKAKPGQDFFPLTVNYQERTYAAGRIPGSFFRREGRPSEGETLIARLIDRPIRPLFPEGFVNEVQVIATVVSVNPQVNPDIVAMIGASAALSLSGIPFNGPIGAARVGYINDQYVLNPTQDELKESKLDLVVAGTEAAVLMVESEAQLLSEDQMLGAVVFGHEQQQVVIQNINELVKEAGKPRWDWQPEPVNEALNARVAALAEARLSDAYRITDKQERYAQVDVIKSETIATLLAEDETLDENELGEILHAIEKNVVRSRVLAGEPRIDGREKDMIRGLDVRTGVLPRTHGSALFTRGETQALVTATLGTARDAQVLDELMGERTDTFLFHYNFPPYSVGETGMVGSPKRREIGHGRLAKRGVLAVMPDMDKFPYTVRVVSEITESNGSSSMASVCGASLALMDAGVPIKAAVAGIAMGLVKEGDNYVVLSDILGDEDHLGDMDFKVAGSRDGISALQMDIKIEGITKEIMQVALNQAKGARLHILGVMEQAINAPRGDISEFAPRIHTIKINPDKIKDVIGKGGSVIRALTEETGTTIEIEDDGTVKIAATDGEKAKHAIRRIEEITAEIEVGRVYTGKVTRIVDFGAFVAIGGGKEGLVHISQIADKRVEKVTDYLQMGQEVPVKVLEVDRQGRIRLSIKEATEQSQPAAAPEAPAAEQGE
Put plainly: ITC. Particulars: EMSA: 20 mM Tris pH 7.5, 100 mM NaCl, 1 mM MgCl2, 1 mM DTT, 30 C, 0.2 uM RNA; BLI: same buffer + 1 mg/mL acetylated BSA; ITC: 20 mM Tris-HCl pH 7.5, 1 mM ….

The target of series [4] is PNPase;Hfq (Escherichia coli K-12 MG1655 derivative?;Escherichia coli?) (UniProt P05055+P0A6X3). The series is described as follows: EMSA. As to conditions: EMSA: 20 mM Tris pH 7.5, 100 mM NaCl, 1 mM MgCl2, 1 mM DTT, 30 C, 0.2 uM RNA; BLI: same buffer + 1 mg/mL acetylated BSA; ITC: 20 mM Tris-HCl pH 7.5, 1 mM ….
A further series addresses T2, PNPase delta-S1 (UniProt P05055).
T2 sequence: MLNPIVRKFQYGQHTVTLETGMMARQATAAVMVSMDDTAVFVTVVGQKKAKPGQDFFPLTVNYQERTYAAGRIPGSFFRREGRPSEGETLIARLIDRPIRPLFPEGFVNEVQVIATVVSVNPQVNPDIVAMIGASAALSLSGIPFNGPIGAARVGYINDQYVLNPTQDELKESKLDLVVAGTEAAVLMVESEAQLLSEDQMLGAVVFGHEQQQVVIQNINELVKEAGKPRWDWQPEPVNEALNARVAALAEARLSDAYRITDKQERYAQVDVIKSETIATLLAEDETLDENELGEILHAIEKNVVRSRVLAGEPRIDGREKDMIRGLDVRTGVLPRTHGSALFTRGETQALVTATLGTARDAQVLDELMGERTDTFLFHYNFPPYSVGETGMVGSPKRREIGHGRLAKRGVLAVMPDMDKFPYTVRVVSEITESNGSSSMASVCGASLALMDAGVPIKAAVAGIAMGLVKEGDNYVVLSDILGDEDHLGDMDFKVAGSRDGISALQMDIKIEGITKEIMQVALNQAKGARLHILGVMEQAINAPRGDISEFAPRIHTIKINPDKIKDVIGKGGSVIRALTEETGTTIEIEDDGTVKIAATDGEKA
The series is described as follows: EMSA. As to conditions: EMSA: 20 mM Tris pH 7.5, 100 mM NaCl, 1 mM MgCl2, 1 mM DTT, 30 C, 0.2 uM RNA; BLI: same buffer + 1 mg/mL acetylated BSA; ITC: 20 mM Tris-HCl pH 7.5, 1 mM ….

Series [5] deals with T1, PNPase. Put plainly: EMSA. Particulars: EMSA: 20 mM Tris pH 7.5, 100 mM NaCl, 1 mM MgCl2, 1 mM DTT, 30 C, 0.2 uM RNA; BLI: same buffer + 1 mg/mL acetylated BSA; ITC: 20 mM Tris-HCl pH 7.5, 1 mM ….
In series [6] the target is T3, PNPase S437-9A (active site mutant) S437A;S438A;S439A (UniProt P05055).
T3 sequence: T1 sequence with S437A, S438A, S439A
Put plainly: EMSA. Particulars: EMSA: 20 mM Tris pH 7.5, 100 mM NaCl, 1 mM MgCl2, 1 mM DTT, 30 C, 0.2 uM RNA; BLI: same buffer + 1 mg/mL acetylated BSA; ITC: 20 mM Tris-HCl pH 7.5, 1 mM ….

A further series concerns the target Hfq (UniProt P0A6X3). The series is described as follows: EMSA. As to conditions: EMSA: 20 mM Tris pH 7.5, 100 mM NaCl, 1 mM MgCl2, 1 mM DTT, 30 C, 0.2 uM RNA; BLI: same buffer + 1 mg/mL acetylated BSA; ITC: 20 mM Tris-HCl pH 7.5, 1 mM ….
The target of series [7] is T1, PNPase. Put plainly: BLI. Particulars: EMSA: 20 mM Tris pH 7.5, 100 mM NaCl, 1 mM MgCl2, 1 mM DTT, 30 C, 0.2 uM RNA; BLI: same buffer + 1 mg/mL acetylated BSA; ITC: 20 mM Tris-HCl pH 7.5, 1 mM ….
Series [8] concerns the target T3, PNPase S437-9A (active site mutant) S437A;S438A;S439A. The series is described as follows: BLI. Particulars: EMSA: 20 mM Tris pH 7.5, 100 mM NaCl, 1 mM MgCl2, 1 mM DTT, 30 C, 0.2 uM RNA; BLI: same buffer + 1 mg/mL acetylated BSA; ITC: 20 mM Tris-HCl pH 7.5, 1 mM ….
Series [9] concerns PNPase. The series is described as follows: ITC. As to conditions: no phosphate, 1 mM Mg2+, 30 C, N = 1.01, EMSA: 20 mM Tris pH 7.5, 100 mM NaCl, 1 mM MgCl2, 1 mM DTT, 0.2 uM RNA, BLI: same buffer + 1 mg/mL acetylated …, ITC: 20 mM Tris-HCl pH 7.5, 1 mM MgCl2.
In a further series the target is T4, PNPase delta-KH delta-S1 (UniProt P05055).
T4 sequence: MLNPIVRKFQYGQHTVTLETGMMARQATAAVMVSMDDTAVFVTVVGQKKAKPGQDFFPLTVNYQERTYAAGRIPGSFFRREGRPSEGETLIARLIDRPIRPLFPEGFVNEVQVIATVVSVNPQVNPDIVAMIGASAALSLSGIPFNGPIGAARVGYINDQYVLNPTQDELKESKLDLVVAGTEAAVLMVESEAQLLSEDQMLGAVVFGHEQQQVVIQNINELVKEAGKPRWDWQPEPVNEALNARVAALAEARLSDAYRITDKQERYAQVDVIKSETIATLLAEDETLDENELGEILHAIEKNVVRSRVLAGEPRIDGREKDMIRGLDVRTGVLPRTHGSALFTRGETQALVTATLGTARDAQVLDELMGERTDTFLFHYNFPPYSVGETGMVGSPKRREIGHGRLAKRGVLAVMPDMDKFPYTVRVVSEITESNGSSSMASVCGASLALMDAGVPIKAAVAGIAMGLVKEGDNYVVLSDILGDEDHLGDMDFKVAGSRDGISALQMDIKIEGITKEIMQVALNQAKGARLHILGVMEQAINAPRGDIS
The series is described as follows: EMSA. As to conditions: EMSA: 20 mM Tris pH 7.5, 100 mM NaCl, 1 mM MgCl2, 1 mM DTT, 30 C, 0.2 uM RNA; BLI: same buffer + 1 mg/mL acetylated BSA; ITC: 20 mM Tris-HCl pH 7.5, 1 mM ….

Positions count from the first letter of the chain named.

PNPase;Hfq (Escherichia coli K-12 MG1655 derivative?;Escherichia coli?), sequence (P0A6X3 whole entry, one chain of several): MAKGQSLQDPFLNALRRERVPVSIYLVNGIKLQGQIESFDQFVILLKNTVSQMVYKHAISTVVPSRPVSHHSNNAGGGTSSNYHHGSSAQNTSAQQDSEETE
Hfq, sequence (P0A6X3 whole entry): as the sequence (P0A6X3 whole entry, one chain of several) above

Usually Kd stands for the free concentration of one partner at which half of the binding sites on the other are occupied at equilibrium, for simple one-to-one binding. As for 5'-biotin RyhB (9U), the Kd in series [1] was 149 nM; with PNPase [2], 15.8 nM.
As to “GCGAUCAGGAAGACCCUCGCGGAGAACCUGAAAGCACGACAUUGCUCACAUUGCUUCCAGUAUUACUUAGCCAGCCGGGUGCUGGCUUUU [RyhB (4U)]”, the dissociation constant Kd with PNPase [3] is 85 nM.
As to “GCUGAAAAACAUAACCCAUAAAAUGCUAGCUGUACCAGGAACCACCUCCUUAGCCUGUGUAAUCUCCCUUACACGGGCUUAUUUUUU [CyaR]”, the binding entry in [4] is on record as “binds”; with PNPase delta-S1, “binds more weakly”; with PNPase [5], “binds”; in [6] it was “binds more weakly”; with Hfq, “binds”.
With “GCGAUCAGGAAGACCCUCGCGGAGAACCUGAAAGCACGACAUUGCUCACAUUGCUUCCAGUAUUACUUAGCCAGCCGGGUGCUGGCUUUUUUUUU [5'-biotin RyhB (9U)]”, the Kd is 15.8 nM with PNPase [7] and 149 nM in series [8].
RyhB (4U): the Kd in the series on PNPase [9] was 85 nM.
With “GCGAUCAGGAAGACCCUCGCGGAGAACCUGAAAGCACGACAUUGCUCACAUUGCUUCCAGUAUUACUUAGCCAGCCGGGUGCUGGCUUUUUUUUU [RyhB (9U)]”, the binding entry is given as “binds” in [4]; “binds more weakly” in the series with PNPase delta-S1; “binds” with PNPase [5]; “binds more weakly” in [6]; “binds” in the series with Hfq; “binds more weakly” with PNPase delta-KH delta-S1.

(Values after PMC4748814.)
